Source: IntAct's records for PubMed 24270572

B1: Endoribonuclease ZC3H12A (Homo sapiens), Q5D1E8 (parent)
chain: MSGPCGEKPVLEASPTMSLWEFEDSHSRQGTPRPGQELAAEEASALELQMKVDFFRKLGYSSTEIHSVLQKLGVQADTNTVLGELVKHGTATERERQTSPDPCPQLPLVPRGGGTPKAPNLEPPLPEEEKEGSDLRPVVIDGSNVAMSHGNKEVFSCRGILLAVNWFLERGHTDITVFVPSWRKEQPRPDVPITDQHILRELEKKKILVFTPSRRVGGKRVVCYDDRFIVKLAYESDGIVVSNDTYRDLQGERQEWKRFIEERLLMYSFVNDKFMPPDDPLGRHGPSLDNFLRKKPLTLEHRKQPCPYGRKCTYGIKCRFFHPERPSCPQRSVADELRANALLSPPRAPSKDKNGRRPSPSSQSSSLLTESEQCSLDGKKLGAQASPGSRQEGLTQTYAPSGRSLAPSGGSGSSFGPTDWLPQTLDSLPYVSQDCLDSGIGSLESQMSELWGVRGGGPGEPGPPRAPYTGYSPYGSELPATAAFSAFGRAMGAGHFSVPADYPPAPPAFPPREYWSEPYPLPPPTSVLQEPPVQSPGAGRSPWGRAGSLAKEQASVYTKLCGVFPPHLVEAVMGRFPQLLDPQQLAAEILSYKSQHPSE

Variants of: B1
Conditions: with ubp10_human USP10, Q14694
Chain of ubp10_human USP10, Q14694 (Q14694 whole entry): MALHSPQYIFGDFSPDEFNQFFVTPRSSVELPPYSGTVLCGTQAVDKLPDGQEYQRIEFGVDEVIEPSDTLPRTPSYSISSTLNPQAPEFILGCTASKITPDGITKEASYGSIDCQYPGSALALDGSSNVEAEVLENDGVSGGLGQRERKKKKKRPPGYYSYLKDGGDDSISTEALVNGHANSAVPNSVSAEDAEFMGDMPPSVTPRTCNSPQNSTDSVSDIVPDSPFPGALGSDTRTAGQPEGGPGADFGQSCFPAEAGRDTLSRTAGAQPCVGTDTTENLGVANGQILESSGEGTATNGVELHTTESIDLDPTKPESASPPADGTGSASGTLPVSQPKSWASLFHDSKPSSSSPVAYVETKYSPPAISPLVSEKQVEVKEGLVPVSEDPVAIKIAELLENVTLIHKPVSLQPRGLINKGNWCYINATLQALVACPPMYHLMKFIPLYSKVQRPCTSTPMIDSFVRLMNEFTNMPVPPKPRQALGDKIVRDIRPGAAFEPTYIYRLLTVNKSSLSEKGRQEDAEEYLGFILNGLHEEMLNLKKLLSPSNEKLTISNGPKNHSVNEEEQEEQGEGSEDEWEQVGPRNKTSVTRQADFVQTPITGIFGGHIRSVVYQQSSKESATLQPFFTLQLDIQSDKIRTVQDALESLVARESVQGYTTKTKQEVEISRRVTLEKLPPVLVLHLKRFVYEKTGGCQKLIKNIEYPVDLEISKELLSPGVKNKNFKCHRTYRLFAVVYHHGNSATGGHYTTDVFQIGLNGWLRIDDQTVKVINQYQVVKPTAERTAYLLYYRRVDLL

effect of a mutation on the interaction | Variant
disrupting interaction | D141N

Variants of: B1
Conditions: with ubp10_human USP10, Q14694
Remark: another data set of the same source

effect of a mutation on the interaction | Variant
disrupting interaction | C306R
